Experimental data published in US20180340025A1 (Novartis, published 2018).

T1: human LAG-3 expressed on cells (human, UniProt P18627 23-525)
T1 construct: whole, on cells; Treated as one protein; the host cell is named under assay; also called LAG-3-expressing CHO cells; LAG-3-transfected CHO cells
T1 sequence (looked up): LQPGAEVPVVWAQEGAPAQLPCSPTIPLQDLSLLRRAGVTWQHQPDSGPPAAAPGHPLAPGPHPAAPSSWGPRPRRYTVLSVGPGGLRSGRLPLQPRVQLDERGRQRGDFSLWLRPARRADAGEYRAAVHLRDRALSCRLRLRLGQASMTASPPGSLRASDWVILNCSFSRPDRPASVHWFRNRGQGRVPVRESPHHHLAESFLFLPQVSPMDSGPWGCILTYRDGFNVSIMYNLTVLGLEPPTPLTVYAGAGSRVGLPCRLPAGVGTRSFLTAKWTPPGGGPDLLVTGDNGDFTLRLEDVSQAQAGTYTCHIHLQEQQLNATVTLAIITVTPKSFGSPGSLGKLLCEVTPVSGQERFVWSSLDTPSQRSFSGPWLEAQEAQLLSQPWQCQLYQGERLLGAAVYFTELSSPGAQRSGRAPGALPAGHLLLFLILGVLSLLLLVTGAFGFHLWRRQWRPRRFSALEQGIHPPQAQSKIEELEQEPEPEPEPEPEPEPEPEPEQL

T2: LAG-3-huIgG1 Fc fusion protein (human, UniProt P18627 23-434, limits assumed)
T2 construct: also called LAG-3-Ig; soluble LAG-3-Ig; not shown: human IgG1 Fc
T2 sequence (looked up): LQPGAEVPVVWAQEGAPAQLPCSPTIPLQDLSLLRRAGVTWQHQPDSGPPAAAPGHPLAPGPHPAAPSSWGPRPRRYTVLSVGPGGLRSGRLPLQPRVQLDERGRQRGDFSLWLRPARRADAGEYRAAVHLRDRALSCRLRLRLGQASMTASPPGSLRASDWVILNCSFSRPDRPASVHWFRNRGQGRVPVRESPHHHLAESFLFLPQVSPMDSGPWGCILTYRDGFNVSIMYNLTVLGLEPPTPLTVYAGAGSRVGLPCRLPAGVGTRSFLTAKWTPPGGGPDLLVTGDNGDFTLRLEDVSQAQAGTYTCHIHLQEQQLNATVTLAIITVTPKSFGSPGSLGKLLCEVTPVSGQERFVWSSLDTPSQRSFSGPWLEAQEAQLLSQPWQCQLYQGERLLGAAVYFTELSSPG


What was measured:
[1] = molecular target: T1, human LAG-3 expressed on cells; experiment: FACS competition: serial dilutions of the test mAb against a constant concentration of FITC-labeled murine BAP050 on LAG-3-expressing CHO cells; MFI of bound labelled mAb
[2] = molecular target: T1, human LAG-3 expressed on cells; experiment: FACS, human T cells; human T cells
[3] = molecular target: T2, LAG-3-huIgG1 Fc fusion protein; experiment: competition binding assay, LAG-3-Ig binding to MHC class II on Raji cells
[4] = molecular target: T1, human LAG-3 expressed on cells; experiment: FACS, human LAG-3 transfected CHO cells; human LAG-3 transfected CHO cells
[5] = molecular target: T1, human LAG-3 expressed on cells; experiment: FACS, human LAG-3 transfected 300.19 cells; human LAG-3 transfected 300.19 cells

Binder	binding result [1]	other results
BAP050-hum05-Ser (antibody, human IgG4 S228P, kappa, C84S in VHFW3 of BAP050-hum05; IgG4(S228P)/kappa; also called clone No. 5S; huBAP050(Ser) clone) heavy: not shown light: EIVLTQSPATLSLSPGERATLSCSSSQDISNYLNWYQQKPGKAPKLLIYYTSTLHLGVPSRFSGSGSGTDFTFTISSLEAEDAATYYCQQYYNLPWTFGQGTKVEIKRTVAAPSVFIFPPSDEQLKSGTASVVCLLNNFYPREAKVQWKVDNALQSGNSQESVTEQDSKDSTYSLSSTLTLSKADYEKHKVYACEVTHQGLSSPVTKSFNRGEC	binds	–
murine anti-LAG-3 monoclonal antibody BAP050 (antibody, V domains shown, also called murine mAb; parent murine mAb) VH: QIQLVQSGPELKKPGETVKISCKASGFTLTNYGMNWVRQTPGKGLKWMGWINTDTGEPTYADDFKGRFAFSLETSASTASLQINNLKNADTATYFCARNPPYYYGTNNAEAMDYWGQGTAVTVSS VL: DIQMTQTTSSLSASLGDRVTISCSSSQDISNYLNWYQQKPDGTVKVLIYYTSTLHLGVPSRFSGSGSGTDYSLTISNLELEDIATYYCQQYYNLPWTFGGGTKLEIK	–	Kd [2]: 0.26 nM; IC50 [3]: 2.3 nM; Kd [4]: 0.2 nM; Kd [5]: 13.6 nM
BAP050-hum02-Ser (antibody, human IgG4 S228P, kappa, V domains shown, C84S in VHFW3 of BAP050-hum02; IgG4(S228P)/kappa; also called clone No. 2S; huBAP050(Ser) clone) VH: EVQLVQSGAEVKKPGATVKISCKVSGFTLTNYGMNWVRQAPGQGLEWMGWINTDTGEPTYADDFKGRFVFSLDTSVSTAYLQISSLKAEDTAVYYCARNPPYYYGTNNAEAMDYWGQGTTVTVSS VL: DIQMTQSPSSLSASVGDRVTITCSSSQDISNYLNWYQQKPGKAPKLLIYYTSTLHLGIPPRFSGSGYGTDFTLTINNIESEDAAYYFCQQYYNLPWTFGQGTKVEIKR	binds	–
BAP050-hum11-Ser (antibody, human IgG4 S228P, kappa, V domains shown, C84S in VHFW3 of BAP050-hum11; IgG4(S228P)/kappa; also called clone No. 11S) VH: QVQLVQSGAEVKKPGASVKVSCKASGFTLTNYGMNWVRQARGQRLEWIGWINTDTGEPTYADDFKGRFVFSLDTSVSTAYLQISSLKAEDTAVYYCARNPPYYYGTNNAEAMDYWGQGTTVTVSS VL: DIQMTQSPSSLSASVGDRVTITCSSSQDISNYLNWYLQKPGQSPQLLIYYTSTLHLGVPSRFSGSGSGTEFTLTISSLQPDDFATYYCQQYYNLPWTFGQGTKVEIKR	binds	–
BAP050-hum12-Ser (antibody, human IgG4 S228P, kappa, V domains shown, C84S in VHFW3 of BAP050-hum12; IgG4(S228P)/kappa; also called huBAP050(Ser) clone) VH: QVQLVQSGAEVKKPGASVKVSCKASGFTLTNYGMNWVRQARGQRLEWIGWINTDTGEPTYADDFKGRFVFSLDTSVSTAYLQISSLKAEDTAVYYCARNPPYYYGTNNAEAMDYWGQGTTVTVSS VL: EIVLTQSPDFQSVTPKEKVTITCSSSQDISNYLNWYQQKPGQAPRLLIYYTSTLHLGVPSRFSGSGSGTDFTLTISSLQPEDFATYYCQQYYNLPWTFGQGTKVEIKR	binds	–
BAP050-hum09-Ser (antibody, human IgG4 S228P, kappa, V domains shown, C84S in VHFW3 of BAP050-hum09; IgG4(S228P)/kappa; also called clone No. 9S; huBAP050(Ser) clone) VH: QVQLVQSGAEVKKPGASVKVSCKASGFTLTNYGMNWVRQARGQRLEWIGWINTDTGEPTYADDFKGRFVFSLDTSVSTAYLQISSLKAEDTAVYYCARNPPYYYGTNNAEAMDYWGQGTTVTVSS VL: DIQMTQSPSSLSASVGDRVTITCSSSQDISNYLNWYQQKPGKAPKLLIYYTSTLHLGIPPRFSGSGYGTDFTLTINNIESEDAAYYFCQQYYNLPWTFGQGTKVEIKR	binds	–
BAP050-hum13-Ser (antibody, human IgG4 S228P, kappa, V domains shown, C84S in VHFW3 of BAP050-hum13; IgG4(S228P)/kappa; also called clone No. 13S (printed 135); huBAP050(Ser) clone) VH: QVQLVQSGAEVKKPGASVKVSCKASGFTLTNYGMNWVRQAPGQGLEWMGWINTDTGEPTYADDFKGRFVFSLDTSVSTAYLQISSLKAEDTAVYYCARNPPYYYGTNNAEAMDYWGQGTTVTVSS VL: DIQMTQSPSSLSASVGDRVTITCSSSQDISNYLNWYQQKPGKAPKLLIYYTSTLHLGIPPRFSGSGYGTDFTLTINNIESEDAAYYFCQQYYNLPWTFGQGTKVEIKR	binds	–
